Assay results: US20120070451

Tested on: Cavβ2 (Ca2+ beta2 channel accessory subunit), endogenous, mouse heart

Substance: recombinant active Akt
- in vitro kinase assay: Cavβ2-immunoprecipitates from cardiac homogenates incubated with recombinant active Akt and [γ-32]ATP: A band corresponding to phosphorylated Cavβ2 was detected only in the presence of the kinase
